The values below are quoted from earlier work in PMC12732943.

This series has as its target Fibrin (Homo sapiens) (UniProt P02671).

pKd: −log10 of the molar value.

As usually defined, the pKd is −log10 of the Kd, conventionally taken in molar units. As to GPVI (monomeric) (from UniProt Q9HCN6), the pKd is 6.52.
